Data from patent US20210292414A1 (H LUNDBECK A S, published 2021).
Like-named read-outs stand apart in the source and are kept apart here.

Columns and labels:
Experiment in all cases: BLI (Octet384RED)
[1] = target: T1, Sortilin SORTECDBAP_hB12390 (human/tetraodon chimera)
T1 construct: Shuffle construct: chimeric human/tetraodon Sortilin ECD with BAP tag
T1 chain: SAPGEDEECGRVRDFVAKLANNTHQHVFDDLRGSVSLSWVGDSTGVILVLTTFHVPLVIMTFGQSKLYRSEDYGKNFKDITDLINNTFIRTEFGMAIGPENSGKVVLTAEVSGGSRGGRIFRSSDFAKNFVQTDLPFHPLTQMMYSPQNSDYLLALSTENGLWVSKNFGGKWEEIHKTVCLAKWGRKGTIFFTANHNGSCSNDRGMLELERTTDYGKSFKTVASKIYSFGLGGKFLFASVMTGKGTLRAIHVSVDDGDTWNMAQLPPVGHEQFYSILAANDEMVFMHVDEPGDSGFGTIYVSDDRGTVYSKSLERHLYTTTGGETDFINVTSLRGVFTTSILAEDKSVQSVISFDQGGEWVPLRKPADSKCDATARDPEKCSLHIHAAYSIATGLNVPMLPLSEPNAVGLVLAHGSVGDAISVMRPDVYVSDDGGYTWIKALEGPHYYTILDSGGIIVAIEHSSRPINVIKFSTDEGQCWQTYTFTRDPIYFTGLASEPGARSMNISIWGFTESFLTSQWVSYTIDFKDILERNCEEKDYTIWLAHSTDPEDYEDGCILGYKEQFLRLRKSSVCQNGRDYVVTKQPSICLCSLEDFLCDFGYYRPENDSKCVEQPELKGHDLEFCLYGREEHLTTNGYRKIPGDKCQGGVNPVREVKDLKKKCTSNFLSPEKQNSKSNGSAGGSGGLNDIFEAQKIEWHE

[2] = target: T2, Sortilin SORTECDBAP_hB01-05 (human/tetraodon chimera)
T2 construct: Shuffle construct: chimeric human/tetraodon Sortilin ECD with BAP tag
T2 chain: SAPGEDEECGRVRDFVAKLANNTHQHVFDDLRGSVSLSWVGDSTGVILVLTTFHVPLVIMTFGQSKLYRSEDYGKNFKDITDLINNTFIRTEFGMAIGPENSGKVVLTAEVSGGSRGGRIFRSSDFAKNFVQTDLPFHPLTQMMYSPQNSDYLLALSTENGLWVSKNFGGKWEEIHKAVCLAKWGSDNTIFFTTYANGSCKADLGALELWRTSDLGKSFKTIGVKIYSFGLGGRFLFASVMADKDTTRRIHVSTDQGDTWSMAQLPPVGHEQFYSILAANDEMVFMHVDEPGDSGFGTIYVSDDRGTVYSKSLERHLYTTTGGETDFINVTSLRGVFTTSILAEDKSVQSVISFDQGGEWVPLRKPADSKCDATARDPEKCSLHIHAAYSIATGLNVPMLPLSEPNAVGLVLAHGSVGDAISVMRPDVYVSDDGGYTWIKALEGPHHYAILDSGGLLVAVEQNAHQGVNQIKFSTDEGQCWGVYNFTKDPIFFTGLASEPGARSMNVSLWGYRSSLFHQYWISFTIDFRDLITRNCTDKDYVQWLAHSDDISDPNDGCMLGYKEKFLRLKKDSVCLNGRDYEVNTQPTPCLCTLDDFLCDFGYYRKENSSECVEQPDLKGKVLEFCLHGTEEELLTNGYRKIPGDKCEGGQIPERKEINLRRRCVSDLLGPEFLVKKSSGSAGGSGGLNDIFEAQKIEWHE

[3] = target: T3, Sortilin SORTECDBAP_tetra (tetraodon)
T3 construct: Fully tetraodon Sortilin ECD with BAP tag; also called tetraodon; tetraodon Sortilin
T3 chain: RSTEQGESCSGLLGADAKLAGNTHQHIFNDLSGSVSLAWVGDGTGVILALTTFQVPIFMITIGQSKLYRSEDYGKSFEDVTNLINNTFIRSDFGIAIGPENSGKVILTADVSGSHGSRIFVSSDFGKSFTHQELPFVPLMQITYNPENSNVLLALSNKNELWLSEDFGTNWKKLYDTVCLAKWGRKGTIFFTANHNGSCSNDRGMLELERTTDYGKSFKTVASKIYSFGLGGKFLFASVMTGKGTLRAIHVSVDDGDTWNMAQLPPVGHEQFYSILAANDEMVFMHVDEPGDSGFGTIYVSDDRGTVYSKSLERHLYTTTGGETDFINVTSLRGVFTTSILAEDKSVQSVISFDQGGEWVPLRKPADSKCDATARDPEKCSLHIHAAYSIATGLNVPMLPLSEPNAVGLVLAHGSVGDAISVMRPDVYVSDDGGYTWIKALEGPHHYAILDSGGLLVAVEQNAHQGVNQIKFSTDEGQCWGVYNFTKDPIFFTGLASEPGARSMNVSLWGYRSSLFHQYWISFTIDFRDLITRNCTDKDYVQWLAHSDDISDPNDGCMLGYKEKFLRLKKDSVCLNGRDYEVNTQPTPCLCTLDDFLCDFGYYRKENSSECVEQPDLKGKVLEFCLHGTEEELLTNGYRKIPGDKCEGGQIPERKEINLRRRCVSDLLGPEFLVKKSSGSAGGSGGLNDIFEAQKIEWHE

hBack [4] = target: T4, hBack
T4 chimeric human/tetraodon Sortilin extracellular region, BAP tag: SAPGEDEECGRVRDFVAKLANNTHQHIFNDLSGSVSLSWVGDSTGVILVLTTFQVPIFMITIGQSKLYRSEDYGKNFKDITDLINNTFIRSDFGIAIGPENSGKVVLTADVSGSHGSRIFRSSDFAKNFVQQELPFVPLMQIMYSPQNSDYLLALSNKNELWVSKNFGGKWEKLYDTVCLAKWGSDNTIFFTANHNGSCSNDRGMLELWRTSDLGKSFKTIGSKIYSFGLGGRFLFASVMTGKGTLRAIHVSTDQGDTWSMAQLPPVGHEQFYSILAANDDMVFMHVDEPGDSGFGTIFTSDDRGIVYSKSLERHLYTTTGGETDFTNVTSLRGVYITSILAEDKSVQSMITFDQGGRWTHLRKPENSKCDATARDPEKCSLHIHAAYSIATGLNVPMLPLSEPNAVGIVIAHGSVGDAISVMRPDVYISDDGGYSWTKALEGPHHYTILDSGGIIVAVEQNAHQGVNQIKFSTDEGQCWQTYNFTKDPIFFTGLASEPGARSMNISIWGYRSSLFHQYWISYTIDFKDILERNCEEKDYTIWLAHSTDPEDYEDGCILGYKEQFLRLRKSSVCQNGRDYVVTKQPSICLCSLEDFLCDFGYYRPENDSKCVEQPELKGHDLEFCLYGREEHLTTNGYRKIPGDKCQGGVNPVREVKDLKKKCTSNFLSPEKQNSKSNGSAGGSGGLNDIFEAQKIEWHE

[5] = target: T1, Sortilin SORTECDBAP_hB12390
[6] = target: T2, Sortilin SORTECDBAP_hB01-05
[7] = target: T3, Sortilin SORTECDBAP_tetra
hBack [8] = target: T4, hBack

B1: Antibody 6003-423 (antibody, human IgG1, V domains shown)
VH: EVQLLESGGGLVQPGGSLRLSCEASGFTFRSYVMSWVRQAPGKGLEWVSTISGGGGNTNYTDSVKGRFTISRDNSKNTLYLQMNSLRAEDTAVYYCAKNWGSGFDYWGQGTLVTVSS
VL: EIVLTQSPATLSLSPGERATLSCRASQSVSSYLAWYQQKPGQAPRLLIYDASNRATGIPARFSGSGSGTDFTLTISSLEPEDFAVYYCQQRSNWLIFTFGPGTKVDIK
**Q.** With B1 as the binder, how does the EC50 [1] read?
**A.** The EC50 was 3.55 ng/mL.

**Q.** Does B1 bind [2]?
**A.** Result: no binding

**Q.** Does B1 bind [3]?
**A.** Result: no binding

**Q.** What about the EC50 (hBack [4]) of the same binder?
**A.** Its EC50 is 4 ng/mL.

B2: Antibody 6003-471 (antibody, V domains shown)
VH: QVQLVQSGAEVKKPGSSVKVSCKASGGTFSNYAISWVRQAPGQGLEWMGRIIPIFGIANYAQKFQGRVTITADKSTSTAYMELSSLRSEDTAVYYCARDRRGFSGYEVFDYWGQGTLVTVSS
VL: DIQMTQSPSSLSASVGDRVTITCRASQGISSWLAWYQQKPEKAPKSLIYATSSLQSGVPSRFSGSGSGTDFTLTISSLQPEDFATYYCQQYNSYPITFGQGTRLEIK
**Q.** For B2, which EC50 [1] is on record?
**A.** The EC50 was 3.16 ng/mL.

**Q.** Does B2 bind [2]?
**A.** Result: no binding

**Q.** Does B2 bind [3]?
**A.** Result: no binding

**Q.** And the EC50 (hBack [4])?
**A.** The EC50 was 2.54 ng/mL.

B3: Antibody 6003-936 (antibody, human IgG1, V domains shown)
VH: EVQLVQSGAEVKKPGESLKISCKGSGYIFTSFWIGWVRQMPGKGLEWMGIIYPGDSDTRYSPSFQGQVTISADKSISTAYLQWSSLKASDTAMYYCARHSRGSFWYGAFQHWGQGTLVTVSS
VL: EIVLTQSPDFQSVTPKEKVTITCRASQSIGSSLHWYQQKPDQSPKLLIKYASQSFSGVPSRFSGSGSGTDFTLTINSLEAEDAAAYYCHQSSSLPHTFGPGTKVDIK
**Q.** How did the EC50 [5] turn out when B3 was run?
**A.** The EC50 was 11.4 ng/mL.

**Q.** Does B3 bind [6]?
**A.** Result: no binding

**Q.** Does B3 bind [7]?
**A.** Result: no binding

**Q.** What about the EC50 (hBack [8]) of the same binder?
**A.** The EC50 was 2.62 ng/mL.
